In IntAct's records for PubMed 9436979:

B1: Mothers against decapentaplegic homolog 6 (Homo sapiens), O43541 (parent)
chain: MFRSKRSGLVRRLWRSRVVPDREEGGSGGGGGGDEDGSLGSRAEPAPRAREGGGCGRSEVRPVAPRRPRDAVGQRGAQGAGRRRRAGGPPRPMSEPGAGAGSSLLDVAEPGGPGWLPESDCETVTCCLFSERDAAGAPRDASDPLAGAALEPAGGGRSREARSRLLLLEQELKTVTYSLLKRLKERSLDTLLEAVESRGGVPGGCVLVPRADLRLGGQPAPPQLLLGRLFRWPDLQHAVELKPLCGCHSFAAAADGPTVCCNPYHFSRLCGPESPPPPYSRLSPRDEYKPLDLSDSTLSYTETEATNSLITAPGEFSDASMSPDATKPSHWCSVAYWEHRTRVGRLYAVYDQAVSIFYDLPQGSGFCLGQLNLEQRSESVRRTRSKIGFGILLSKEPDGVWAYNRGEHPIFVNSPTLDAPGGRALVVRKVPPGYSIKVFDFERSGLQHAPEPDAADGPYDPNSVRISFAKGWGPCYSRQFITSCPCWLEILLNNPR

Variants of: B1
Details: with smad1_human SMAD1, Q15797
Sequence of smad1_human SMAD1, Q15797 (Q15797 whole entry): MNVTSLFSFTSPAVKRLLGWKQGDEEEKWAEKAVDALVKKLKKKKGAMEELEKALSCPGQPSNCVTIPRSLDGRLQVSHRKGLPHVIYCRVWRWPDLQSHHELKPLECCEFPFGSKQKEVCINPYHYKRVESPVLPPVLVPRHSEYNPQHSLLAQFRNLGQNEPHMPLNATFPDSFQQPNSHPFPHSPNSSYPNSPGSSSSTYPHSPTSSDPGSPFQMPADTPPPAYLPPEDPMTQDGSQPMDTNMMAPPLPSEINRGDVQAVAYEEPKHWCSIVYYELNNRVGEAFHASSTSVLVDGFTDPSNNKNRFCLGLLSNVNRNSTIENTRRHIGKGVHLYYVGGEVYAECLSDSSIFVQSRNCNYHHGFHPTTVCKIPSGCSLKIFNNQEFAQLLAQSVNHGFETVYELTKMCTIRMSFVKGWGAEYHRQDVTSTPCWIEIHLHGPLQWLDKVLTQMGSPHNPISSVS

effect of a mutation on the interaction | Variant
disrupting interaction | G471S
